# Experiments:
# [1] = target: AmVHPO R425D mutant (vanadium-dependent haloperoxidase from Acaryochloris marina, R425D) (Acaryochloris marina MBIC 11017); test: crystal structure; hanging drop vapor diffusion at 20 °C, protein 15 mg/mL, reservoir 0.1 M Tris pH 8.5, 2 M NH4H2PO4, 0.5 mM K3VO4; R425S solved without and with 1 mM 1,3,5-trimethoxybenzene (TMB)
# [2] = target: T1, AmVHPO (vanadium-dependent haloperoxidase from Acaryochloris marina) (Acaryochloris marina, UniProt B0C4R0, R425S); test: X-ray co-crystal structure; assay type: binding; conditions: 1 mM TMB; phosphate in place of vanadate; site at interface of two adjacent subunits (Glu139, Gln399, Phe401); pH 8.5; 20 °C
# T1 construct: gene AM1_4975; codon-optimized synthetic gene in pET28-based vector, His-tag, E. coli BL21 (DE3); dodecamer (hexamer of dimers); active site/substrate tunnel formed by two adjacent subunits
# [3] = target: AmVHPO R425S mutant (vanadium-dependent haloperoxidase from Acaryochloris marina, R425S) (Acaryochloris marina MBIC 11017); test: crystal structure; hanging drop vapor diffusion at 20 °C, protein 15 mg/mL, reservoir 0.1 M Tris pH 8.5, 2 M NH4H2PO4, 0.5 mM K3VO4; R425S solved without and with 1 mM 1,3,5-trimethoxybenzene (TMB)
# T1 sequence (B0C4R0 entry or part of it R425S): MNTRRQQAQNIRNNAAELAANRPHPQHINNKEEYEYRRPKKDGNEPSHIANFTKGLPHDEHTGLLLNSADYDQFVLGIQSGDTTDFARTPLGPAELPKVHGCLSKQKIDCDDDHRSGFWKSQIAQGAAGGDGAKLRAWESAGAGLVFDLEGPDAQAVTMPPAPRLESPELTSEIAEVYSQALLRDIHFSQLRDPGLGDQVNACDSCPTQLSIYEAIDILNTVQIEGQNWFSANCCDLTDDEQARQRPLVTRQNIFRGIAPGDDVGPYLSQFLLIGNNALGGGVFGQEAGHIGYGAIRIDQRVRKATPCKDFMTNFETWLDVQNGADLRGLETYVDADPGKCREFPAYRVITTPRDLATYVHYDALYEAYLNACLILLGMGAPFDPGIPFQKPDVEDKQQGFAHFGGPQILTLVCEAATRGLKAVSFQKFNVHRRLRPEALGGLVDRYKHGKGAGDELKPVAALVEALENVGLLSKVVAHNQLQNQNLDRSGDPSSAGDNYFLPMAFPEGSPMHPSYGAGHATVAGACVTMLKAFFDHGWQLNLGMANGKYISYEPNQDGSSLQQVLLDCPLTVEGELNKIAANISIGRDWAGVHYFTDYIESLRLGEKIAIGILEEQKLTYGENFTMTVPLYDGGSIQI
compound,measurement,setting,value
"AmVHPO R425D mutant (vanadium-dependent haloperoxidase from Acaryochloris marina, R425D) (enzyme)",stoichiometry N,[1],12
"COc1cc(OC)cc(OC)c1 [compound 7, 1,3,5-trimethoxybenzene]",X-ray co-crystal structure,[2],8Q22 (AmVHPO R425S mutant with TMB)
"AmVHPO R425S mutant (vanadium-dependent haloperoxidase from Acaryochloris marina, R425S) (enzyme)",stoichiometry N,[3],12

# Source: PMC11871015, “Unraveling the molecular basis of substrate specificity and halogen activation in vanadium-dependent haloperoxidases” (Nature Communications, 2025)
